Results reported in PMC5550728.

Target: mouse Cav1.3 α1 subunit expressed in HEK cells (mouse) (UniProt Q99246)
Sequence (Q99246 whole entry): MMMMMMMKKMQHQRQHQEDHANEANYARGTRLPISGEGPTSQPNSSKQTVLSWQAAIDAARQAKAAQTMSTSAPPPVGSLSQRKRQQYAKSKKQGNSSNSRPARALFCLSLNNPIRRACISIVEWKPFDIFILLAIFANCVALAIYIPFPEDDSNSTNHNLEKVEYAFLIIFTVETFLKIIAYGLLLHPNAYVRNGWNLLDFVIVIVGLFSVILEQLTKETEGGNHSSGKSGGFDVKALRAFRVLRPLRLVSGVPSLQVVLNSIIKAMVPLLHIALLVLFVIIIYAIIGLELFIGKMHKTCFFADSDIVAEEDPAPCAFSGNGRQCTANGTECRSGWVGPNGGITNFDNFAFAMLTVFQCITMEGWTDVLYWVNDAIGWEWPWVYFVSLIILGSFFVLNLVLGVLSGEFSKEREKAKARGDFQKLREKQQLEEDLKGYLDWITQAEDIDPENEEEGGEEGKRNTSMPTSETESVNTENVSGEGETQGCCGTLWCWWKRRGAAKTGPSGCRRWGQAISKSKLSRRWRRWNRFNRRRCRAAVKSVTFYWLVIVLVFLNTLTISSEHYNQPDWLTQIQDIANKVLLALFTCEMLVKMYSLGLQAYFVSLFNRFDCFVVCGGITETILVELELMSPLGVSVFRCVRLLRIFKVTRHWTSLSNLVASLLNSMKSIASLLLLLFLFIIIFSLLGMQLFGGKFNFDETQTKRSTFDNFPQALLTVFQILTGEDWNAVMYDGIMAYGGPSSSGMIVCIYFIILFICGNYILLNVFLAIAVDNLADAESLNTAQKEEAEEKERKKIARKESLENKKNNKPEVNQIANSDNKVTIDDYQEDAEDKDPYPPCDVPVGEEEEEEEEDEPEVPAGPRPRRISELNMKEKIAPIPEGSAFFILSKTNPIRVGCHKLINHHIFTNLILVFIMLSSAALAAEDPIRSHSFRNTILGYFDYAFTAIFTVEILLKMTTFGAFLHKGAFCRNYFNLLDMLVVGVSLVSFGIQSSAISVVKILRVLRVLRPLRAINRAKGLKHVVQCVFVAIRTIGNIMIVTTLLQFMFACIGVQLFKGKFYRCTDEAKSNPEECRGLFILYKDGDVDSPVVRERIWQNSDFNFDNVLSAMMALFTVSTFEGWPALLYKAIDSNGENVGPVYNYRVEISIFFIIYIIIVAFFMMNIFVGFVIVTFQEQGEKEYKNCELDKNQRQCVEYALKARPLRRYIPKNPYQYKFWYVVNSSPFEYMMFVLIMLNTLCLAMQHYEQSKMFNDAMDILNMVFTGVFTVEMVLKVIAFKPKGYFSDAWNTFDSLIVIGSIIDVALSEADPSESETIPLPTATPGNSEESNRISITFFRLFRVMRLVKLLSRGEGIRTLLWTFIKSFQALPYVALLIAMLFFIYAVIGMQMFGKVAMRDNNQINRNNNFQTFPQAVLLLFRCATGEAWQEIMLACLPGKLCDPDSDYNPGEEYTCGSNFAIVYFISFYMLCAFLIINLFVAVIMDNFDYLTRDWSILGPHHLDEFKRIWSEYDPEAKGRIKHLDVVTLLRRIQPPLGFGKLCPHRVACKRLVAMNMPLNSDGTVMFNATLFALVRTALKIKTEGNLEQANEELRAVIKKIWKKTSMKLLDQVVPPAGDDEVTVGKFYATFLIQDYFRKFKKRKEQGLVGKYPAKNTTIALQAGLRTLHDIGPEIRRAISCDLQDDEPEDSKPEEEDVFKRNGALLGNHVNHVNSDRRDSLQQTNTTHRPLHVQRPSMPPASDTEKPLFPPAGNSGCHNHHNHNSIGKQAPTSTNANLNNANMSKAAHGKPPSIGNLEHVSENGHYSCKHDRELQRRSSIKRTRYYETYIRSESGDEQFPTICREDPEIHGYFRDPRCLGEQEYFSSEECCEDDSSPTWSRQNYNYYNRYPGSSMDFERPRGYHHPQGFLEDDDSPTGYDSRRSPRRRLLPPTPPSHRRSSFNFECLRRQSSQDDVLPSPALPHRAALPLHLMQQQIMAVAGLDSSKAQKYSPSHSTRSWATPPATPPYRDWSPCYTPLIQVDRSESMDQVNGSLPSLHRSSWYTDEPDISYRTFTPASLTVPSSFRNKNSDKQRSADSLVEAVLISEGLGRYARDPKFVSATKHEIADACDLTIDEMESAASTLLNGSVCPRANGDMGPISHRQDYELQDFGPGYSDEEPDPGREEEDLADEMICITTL

shift of the current-membrane voltage relationship (voltage-dependent activation) of Cav1.3-LTCCs on co-transfection with RS1, HEK cells: -10 mV
B1: human RS1 (wild type) expressed in HEK cells (natural protein)
chain: STEDEGEDPWYQKACKCDCQGGPNALWSAGATSLDCIPECPYHKPLGFESGEVTPDQITCSNPEQYVGWYSSWTANKARLNSQGFGCAWLSKFQDSSQWLQIDLKEIKVISGILTQGRCDIDEWMTKYSVQYRTDERLNWIYYKDQTGNNRVFYGNSDRTSTVQNLLRPPIISRFIRLIPLGWHVRIAIRMELLECVSKCA
